From US20130171130A1 (ZymoGenetics, published 2013)

Columns and labels:
[1] = target: T1, IL-20RA/IL-20RB heterodimeric receptor (human, UniProt Q9UHF4 30-553; Q6UXL0 30-311); assay: 125I-labeled IL-20 binding on BHK cells expressing IL-20RA and IL-20RB
T1 construct: Both subunits co-expressed on transfected COS, BHK or BaF3 cells, or endogenous on HaCaT keratinocytes; also called IL-20RB/IL-20RA heterodimer; IL-20 receptor
T1 sequence 1: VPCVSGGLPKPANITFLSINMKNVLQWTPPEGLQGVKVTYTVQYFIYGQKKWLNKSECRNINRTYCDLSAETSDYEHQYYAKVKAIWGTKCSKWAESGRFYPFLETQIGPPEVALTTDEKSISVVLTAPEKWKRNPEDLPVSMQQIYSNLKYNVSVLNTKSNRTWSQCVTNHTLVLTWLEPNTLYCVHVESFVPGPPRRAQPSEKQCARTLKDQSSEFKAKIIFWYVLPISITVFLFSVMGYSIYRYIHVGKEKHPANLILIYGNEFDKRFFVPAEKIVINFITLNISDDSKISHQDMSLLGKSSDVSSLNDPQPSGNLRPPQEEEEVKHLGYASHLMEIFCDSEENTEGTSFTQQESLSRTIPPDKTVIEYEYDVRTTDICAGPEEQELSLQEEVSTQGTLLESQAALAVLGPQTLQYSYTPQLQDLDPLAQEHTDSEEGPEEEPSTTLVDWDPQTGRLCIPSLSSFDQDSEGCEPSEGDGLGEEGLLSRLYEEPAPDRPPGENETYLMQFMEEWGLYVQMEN
T1 sequence 2: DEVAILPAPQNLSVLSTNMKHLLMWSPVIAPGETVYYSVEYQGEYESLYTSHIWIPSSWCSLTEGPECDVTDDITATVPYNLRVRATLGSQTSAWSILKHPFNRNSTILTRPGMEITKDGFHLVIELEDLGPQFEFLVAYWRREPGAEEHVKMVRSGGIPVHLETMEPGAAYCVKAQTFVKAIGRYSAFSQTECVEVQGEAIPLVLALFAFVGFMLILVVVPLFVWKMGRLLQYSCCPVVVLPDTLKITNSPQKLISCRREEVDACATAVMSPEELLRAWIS
Protocol: (§1) The specificity and affinity of IL-20 for its receptor was determined using BHK cells stably transfected with IL-20RA, IL-20RB or both receptor subunits. […] Binding of ¹²⁵I-labeled IL-20 was eliminated in the presence of 100-fold excess of unlabeled IL-20 but not with 100-fold excess of the unrelated cytokine, IL-21.

[2] = target: T2, IL-20RA (expressed alone on BHK cells) (human, UniProt Q9UHF4 30-553); assay: radiolabeled ligand binding on stably transfected BHK cells
T2 construct: BHK cells stably transfected with IL-20RA only; also called ZcytoR7; IL-20 receptor alpha chain
T2 sequence: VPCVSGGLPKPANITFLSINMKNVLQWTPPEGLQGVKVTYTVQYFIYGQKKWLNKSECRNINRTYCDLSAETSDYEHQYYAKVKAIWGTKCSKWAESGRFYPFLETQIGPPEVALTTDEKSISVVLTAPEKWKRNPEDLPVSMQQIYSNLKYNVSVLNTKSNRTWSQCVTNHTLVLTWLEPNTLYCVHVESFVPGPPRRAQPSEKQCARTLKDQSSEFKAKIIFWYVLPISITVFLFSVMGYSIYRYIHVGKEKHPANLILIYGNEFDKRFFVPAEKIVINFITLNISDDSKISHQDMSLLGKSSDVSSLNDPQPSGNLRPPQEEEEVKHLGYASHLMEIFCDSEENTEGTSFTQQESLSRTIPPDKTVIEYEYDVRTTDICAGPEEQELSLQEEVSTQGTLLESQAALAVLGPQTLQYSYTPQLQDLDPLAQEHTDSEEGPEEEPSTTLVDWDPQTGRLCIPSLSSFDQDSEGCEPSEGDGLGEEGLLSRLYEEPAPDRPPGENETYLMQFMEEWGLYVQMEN
Protocol: as §1

[3] = target: T3, IL-20RB (expressed alone on BHK cells) (human, UniProt Q6UXL0 30-311); assay: as above
T3 construct: BHK cells stably transfected with IL-20RB only; also called DIRS1; IL-20 receptor beta chain
T3 sequence: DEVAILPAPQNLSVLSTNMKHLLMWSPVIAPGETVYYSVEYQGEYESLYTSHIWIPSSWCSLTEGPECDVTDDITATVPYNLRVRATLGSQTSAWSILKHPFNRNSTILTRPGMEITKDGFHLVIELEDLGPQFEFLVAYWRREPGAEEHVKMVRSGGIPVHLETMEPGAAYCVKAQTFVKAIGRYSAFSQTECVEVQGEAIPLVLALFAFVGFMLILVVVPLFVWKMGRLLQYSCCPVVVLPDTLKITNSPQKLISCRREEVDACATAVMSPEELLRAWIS
Protocol: as §1

Kd [1]: ~1.5 nM
binding result [2]: no binding
binding result [3]: no binding
B1: IL-20 (Interleukin-20) (ligand, UniProt Q9NYY1 25-176, looked up)
chain: LKTLNLGSCVIATNLQEIRNGFSEIRGSVQAKDGNIDIRILRRTESLQDTKPANRCCLLRHLLRLYLDRVFKNYQTPDHYTLRKISSLANSFLTIKKDLRLCHAHMTCHCGEEAMKKYSQILSHFEKLEPQAAVVKALGELDILLQWMEETE
notes: also called Zcyto10; IL-20 protein
